According to patent US20260266848A1, “COMPOSITIONS AND METHODS FOR DIAGNOSING AND TREATING DYSTONIA” (Duke University, priority 2023, published 2026):

B1: Ssb (protein, UniProt P32067 1-415, looked up)
Lupus La protein homolog: MAENGDNEKMTALEAKICHQIEYYFGDFNLPRDKFLKEQIKLDEGWVPLETMIKFNRLNRLTTDFNVIVQALSKSKAKLMEVSADKTKIRRSPSRPLPEVTDEYKNDVKNRSVYIKGFPTDATLDDIKEWLDDKGQILNIQMRRTLHKTFKGSIFAVFDSIQSAKKFVEIPGQKYKDTNLLILFKEDYFAKKNEERKQSKVEAKLKAKQEHEGRHKPGSTETRALEGKMGCLLKFSGDLDDQTCREDLHFLFSNHGEIKWVDFARGAKEGIILFKEKAKEALEKARNANNGNLLLRNKKVTWKVLEGHAEKEALKKITDDQQESLNKWKSKGGHAGGRFKGSHVFTAARRFKGKGKGNRPGYAGAPKGRGQFHGRRTRFDDDDRRRGPMKRGRDGRDREEPASKHKKRENGARDK
B2: Pura (protein, UniProt P42669 2-321, looked up)
Transcriptional activator …: ADRDSGSEQGGAALGSGGSLGHPGSGSGSGGGGGGGGGGGGSGGGGGAPGGLQHETQELASKRVDIQNKRFYLDVKQNAKGRFLKIAEVGAGGNKSRLTLSMSVAVEFRDYLGDFIEHYAQLGPSQPPDLAQAQDEPRRALKSEFLVRENRKYYMDLKENQRGRFLRIRQTVNRGPGLGSTQGQTIALPAQGLIEFRDALAKLIDDYGVEEEPAELPEGTSLTVDNKRFFFDVGSNKYGVFMRVSEVKPTYRNSITVPYKVWAKFGHTFCKYSEEMKKIQEKQREKRAACEQLHQQQQQQQEETTAATLLLQGEEEGEED
B3: Tra2b (protein, UniProt P62996 2-288, looked up)
Transformer-2 protein homolog …: SDSGEQNYGERESRSASRSGSAHGSGKSARHTPARSRSKEDSRRSRSKSRSRSESRSRSRRSSRRHYTRSRSRSRSHRRSRSRSYSRDYRRRHSHSHSPMSTRRRHVGNRANPDPNCCLGVFGLSLYTTERDLREVFSKYGPIADVSIVYDQQSRRSRGFAFVYFENVDDAKEAKERANGMELDGRRIRVDFSITKRPHTPTPGIYMGRPTYGSSRRRDYYDRGYDRGYDDRDYYSRSYRGGGGGGGGWRAAQDRDQIYRRRSPSPYYSRGGYRSRSRSRSYSPRRY
B4: Rab6a (protein, UniProt P35279 2-208, looked up)
Ras-related protein Rab-6A: SAGGDFGNPLRKFKLVFLGEQSVGKTSLITRFMYDSFDNTYQATIGIDFLSKTMYLEDRTVRLQLWDTAGQERFRSLIPSYIRDSTVAVVVYDITNVNSFQQTTKWIDDVRTERGSDVIIMLVGNKTDLADKRQVSIEEGERKAKELNVMFIETSAKAGYNVKQLFRRVAAALPGMESTQDRSREDMIDIKLEKPQEQPVNEGGCSC
B5: Srsf7 (protein, UniProt Q8BL97 1-267, looked up)
Serine/arginine-rich splicing …: MRSSARGRPLQAATAFFLSLFFFLRRFERGFWLWGGDSETKVYVGNLGTGAGKGELERAFSYYGPLRTVWIARNPPGFAFVEFEDPRDAEDAVRGLDGKVICGSRVRVELSTGMPRRSRFDRPPARRPFDPNDRCYECGEKGHYAYDCHRYSRRRRSRSRSRSHSRSRGRRYSRSRSRSRGRRSRSASPRRSRSVSLRRSRSASLRRSRSGSIIGSRYFQSRSRSRSRSRSISRPRSSRSKSRSPSPKRSRSPSGSPHRSASPERMD
B6: Pdia4 (protein, UniProt P08003 21-638, looked up)
Protein disulfide-isomerase A4: AASAGDAHEDTSDTENATEEEEEEDDDDLEVKEENGVWVLNDGNFDNFVADKDTVLLEFYAPWCGHCKQFAPEYEKIASTLKDNDPPIAVAKIDATSASMLASKFDVSGYPTIKILKKGQAVDYDGSRTQEEIVAKVREVSQPDWTPPPEVTLSLTKDNFDDVVNNADIILVEFYAPWCGHCKKLAPEYEKAAKELSKRSPPIPLAKVDATEQTDLAKRFDVSGYPTLKIFRKGRPFDYNGPREKYGIVDYMIEQSGPPSKEILTLKQVQEFLKDGDDVVIIGLFQGDGDPAYLQYQDAANNLREDYKFHHTFSPEIAKFLKVSLGKLVLTHPEKFQSKYEPRFHVMDVQGSTEASAIKDYVVKHALPLVGHRKTSNDAKRYSKRPLVVVYYSVDFSFDYRAATQFWRNKVLEVAKDFPEYTFAIADEEDYATEVKDLGLSESGEDVNAAILDESGKKFAMEPEEFDSDTLREFVTAFKKGKLKPVIKSQPVPKNNKGPVKVVVGKTFDAIVMDPKKDVLIEFYAPWCGHCKQLEPIYTSLGKKYKGQKDLVIAKMDATANDITNDQYKVEGFPTIYFAPSGDKKNPIKFEGGNRDLEHLSKFIDEHATKRSRTKEEL
B7: Cryab (protein, UniProt P23927 1-175, looked up)
Alpha-crystallin B chain: MDIAIHHPWIRRPFFPFHSPSRLFDQFFGEHLLESDLFSTATSLSPFYLRPPSFLRAPSWIDTGLSEMRLEKDRFSVNLDVKHFSPEELKVKVLGDVIEVHGKHEERQDEHGFISREFHRKYRIPADVDPLTITSSLSSDGVLTVNGPRKQVSGPERTIPITREEKPAVAAAPKK
B8: Itgb3 (protein, UniProt O54890 26-787, looked up)
Integrin beta-3: ESNICTTRGVNSCQQCLAVSPVCAWCSDETLSQGSPRCNLKENLLKDNCAPESIEFPVSEAQILEARPLSSKGSGSSAQITQVSPQRIALRLRPDDSKIFSLQVRQVEDYPVDIYYLMDLSFSMKDDLSSIQTLGTKLASQMRKLTSNLRIGFGAFVDKPVSPYMYISPPQAIKNPCYNMKNACLPMFGYKHVLTLTDQVSRFNEEVKKQSVSRNRDAPEGGFDAIMQATVCDEKIGWRNDASHLLVFTTDAKTHIALDGRLAGIVLPNDGHCHIGTDNHYSASTTMDYPSLGLMTEKLSQKNINLIFAVTENVVSLYQNYSELIPGTTVGVLSDDSSNVLQLIVDAYGKIRSKVELEVRDLPEELSLSFNATCLNNEVIPGLKSCVGLKIGDTVSFSIEAKVRGCPQEKEQSFTIKPVGFKDSLTVQVTFDCDCACQAFAQPSSPRCNNGNGTFECGVCRCDQGWLGSMCECSEEDYRPSQQEECSPKEGQPICSQRGECLCGQCVCHSSDFGKITGKYCECDDFSCVRYKGEMCSGHGQCNCGDCVCDSDWTGYYCNCTTRTDTCMSTNGLLCSGRGNCECGSCVCVQPGSYGDTCEKCPTCPDACSFKKECVECKKFNRGTLHEENTCSRYCRDDIEQVKELTDTGKNAVNCTYKNEDDCVVRFQYYEDTSGRAVLYVVEEPECPKGPDILVVLLSVMGAILLIGLATLLIWKLLITIHDRKEFAKFEEERARAKWDTANNPLYKEATSTFTNITYRGT
B9: Ipo7 (protein, UniProt Q9EPL8 1-1038, looked up)
Importin-7: MDPNTIIEALRGTMDPALREAAERQLNEAHKSLNFVSTLLQITMSEQLDLPVRQAGVIYLKNMITQYWPDREATPGDIAPYTIPEEDRHCIRENIVEAIIHSPELIRVQLTTCIHHIIKHDYPSRWTAIVDKIGFYLQSDNSACWLGILLCLYQLVKNYEYKKPEERSPLVAAMQHFLPVLKDRFIQLLSDQSDQSVLIQKQIFKIFYALVQYTLPLELINQQNLTEWVEILKTVVNRDVPNETLQVEEDDRPELPWWKCKKWALHILARLFERYGSPGNVSKEYNEFAEVFLKAFAVGVQQVLLKVLYQYKEKQYMAPRVLQQTLNYINQGVSHALTWKNLKPHIQGIIQDVIFPLMCYTDADEELWQEDPYEYIRMKFDVFEDFISPTTAAQTLLFTACSKRKEVLQKTMGFCYQILTEPNADPRKKDGALHMIGSLAEILLKKKIYKDQMEYMLQNHVFPLFSSELGYMRARACWVLHYFCEVKFKSDQNLQTALELTRRCLIDDREMPVKVEAAIALQVLISNQEKAKEYITPFIRPVMQALLHIIRETENDDLTNVIQKMICEYSEEVTPIAVEMTQHLAMTFNQVIQTGPDEEGSDDKAVTAMGILNTIDTLLSVVEDHKEITQQLEGICLQVIGTVLQQHVLEFYEEIFSLAHSLTCQQVSPQMWQLLPLVFEVFQQDGFDYFTDMMPLLHNYVTVDTDTLLSDTKYLEMIYSMCKKVLTGVAGEDAECHAAKLLEVIILQCKGRGIDQCIPLFVEAALERLTREVKTSELRTMCLQVAIAALYYNPHLLLNTLENLRFPNNVEPVTNHFITQWLNDVDCFLGLHDRKMCVLGLCALIDMEQIPQVLNQVSGQILPAFILLFNGLKRAYACHAEHENDSDDDEDAEDDDETEELGSDEDDIDEDGQEYLEILAKQAGEDGDDEDWEEDDAEETALEGYSTIIDDEDNPVDEYQIFKAIFQTIQNRNPVWYQALTHGLNEEQRKQLQDIATLADQRRAAHESKMIEKHGGYKFSAPVVPSSFNFGGPAPGMN

test system: DYT-TOR1A MEF EVs; assay: Quantitative LC-MS/MS proteomics of EVs from drug-treated DYT-TOR1A MEF cultures (ritonavir, salubrinal); type: cell-based, mouse; parameters: key to RTV Corrective Direction / RTV Corrective Direction, Grwd1 / RTV Corrective Direction, Srrm2 / RTV Corrective Direction, Rbm17 / RTV Corrective Direction, Dcaf8 / RTV Corrective Direction, Edil3 / RTV Corrective Direction, Timp3 / RTV Corrective Direction, Heatr3 / RTV Corrective Direction, Brd4 / RTV Corrective Direction, P3h4 / RTV Corrective Direction, Pacsin3 / RTV Corrective Direction, Naa50 / RTV Corrective Direction, Lpar6 / RTV Corrective Direction, Ndrg1 / RTV Corrective Direction, Kntc1 / RTV Corrective Direction, Cdk11b / RTV Corrective Direction, Sumo1 / RTV Corrective Direction, Lsm4 / RTV Corrective Direction, Hmga2 / RTV Corrective Direction, Cstf1 / RTV Corrective Direction, Tes / RTV Corrective Direction, Sbno1 / RTV Corrective Direction, Unc119b / RTV Corrective Direction, Cfdp1 / RTV Corrective Direction, Sec61b: YES = protein abundance effect opposite to DYT/WT; details: not given

| Molecule | RTV Corrective Direction |
| --- | --- |
| B1 | YES |
| B2 | YES |

same assay, conditions: EV protein abundance, DYT + RTV (ritonavir) vs DYT, direction compared with DYT/WT

| Molecule | RTV Corrective Direction |
| --- | --- |
| B3 | YES |
| B4 | YES |
| B5 | YES |
| B6 | YES |
| B7 | YES |
| B8 | YES |
| B9 | YES |

same assay, conditions: EV protein abundance, ritonavir (RTV)-treated DYT vs DYT

| Molecule | DYT + RTV/DYT Cohen's d |
| --- | --- |
| B3 | 3.28 |
| B1 | 2.79 |
| B4 | 3.14 |
| B5 | 2.91 |
| B6 | 2.25 |
| B7 | 1.11 |
| B2 | 2.36 |
| B8 | 1.96 |
| B9 | 2.25 |

test system: WT MEF EVs; assay: Quantitative LC-MS/MS proteomics of EVs from ISRIB-treated WT MEF cultures; type: cell-based, mouse; details: EV protein abundance, ISRIB-treated WT vs WT

| Molecule | WT + ISRIB/WT Cohen's d |
| --- | --- |
| B3 | 0.54 |
| B1 | 0.41 |
| B4 | 0.44 |
| B5 | 0.13 |
| B6 | 1.37 |
| B7 | 0.39 |
| B2 | 0.52 |
| B8 | 0.14 |
| B9 | 0.30 |
